Experiment [1] addresses T1, recombinant human PD-1 His-tag protein (R&D Systems) (human, UniProt Q15116 25-167).
T1 construct: Bought reagent; Used for the ELISA (coated) and for SPR (analyte); also called PD-1 protein; human PD-1 protein; not shown: His-tag
In words: ELISA, PD-1 His-tag coated on plate, anti-human IgG Fc-HRP detection. How it is done: ELISA technique was used to select hybridoma mini-pools producing anti-PD-1 antibodies using the following procedure. MaxiSorp ELISA plate was coated with PD-1 His-tag (R&D System) in PBS buffer (10 ng/100 μL/well) at 4° C. overnight. […] The culture supernatant of each mini-pool (100 μL) was added to the plate then incubated for 1 hour at 37° C. After washing, the plate was probed with goat anti-mouse IgG Fcγ-HRP (Jackson Immuno Research) diluted 1:8,000 in PBST (100 μL/well) and incubated for 1 hour at 37° C. […] 1 M H₂SO₄ (50 μL/well) was used to stop the reaction. […] Hybridoma mini-pools with absorbance values of more than 1.0 were selected for further screening.
The purified chimeric antibodies were 2-fold serial diluted for eleven rounds starting from […] until reaching the final concentration of 0.977 ng/mL. The PD-1 binding activity of purified chimeric antibodies was evaluated by ELISA following the procedure mentioned in Example 2, while the goat anti-human IgG Fcγ-HRP antibody (Jackson Immuno Research) diluted 1:10.000 in PBST was used to detect chimeric antibodies.

Experiment [2] deals with T2, human PD-1 on PD-1-expressing Jurkat effector cells (human, UniProt Q15116 25-288). In words: cell-based or functional assay.
T2 sequence (Q15116 25-288): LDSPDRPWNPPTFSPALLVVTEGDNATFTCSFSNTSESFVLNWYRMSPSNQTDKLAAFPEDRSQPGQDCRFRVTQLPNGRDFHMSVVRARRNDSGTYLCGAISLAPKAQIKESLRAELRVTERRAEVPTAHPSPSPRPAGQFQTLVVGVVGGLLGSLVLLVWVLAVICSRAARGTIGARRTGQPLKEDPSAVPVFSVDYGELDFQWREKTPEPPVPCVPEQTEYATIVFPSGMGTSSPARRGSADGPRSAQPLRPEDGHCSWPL
Experiment [3] has as its target T1, recombinant human PD-1 His-tag protein …. Description: SPR, Biacore T200, antibody captured on Protein G chip, PD-1 His-tag injected, single-cycle kinetics, 1:1 model. How it is done: The Biacore T200 instrument, equipped with a Protein G sensor chip (GE Healthcare), was used to determine the binding kinetics between chimeric anti-PD-1 antibodies and PD-1 protein. Each purified chimeric anti-PD-1 antibody (1 μg/mL) was injected into the chip with a flow rate of 30 μL/min for 60 sec. […] The HBS-EP+buffer (GE Healthcare) was used as a buffer blank and diluent. The association constant (kₒₙ), dissociation constant (koff), and equilibrium constant (KD) values were calculated using Biacore T200 evaluation software (version 3.1) with a 1:1 Langmuir binding model curve fitting.

For experiment [4], the target named is T2, human PD-1 on PD-1-expressing Jurkat …. In words: cell-based or functional assay. This is another data set of the same source.

T1 sequence (Q15116 25-167 limits assumed): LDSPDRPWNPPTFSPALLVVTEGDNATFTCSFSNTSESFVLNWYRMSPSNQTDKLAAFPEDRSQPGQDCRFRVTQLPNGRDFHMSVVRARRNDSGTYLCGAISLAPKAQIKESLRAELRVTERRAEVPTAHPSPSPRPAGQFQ

B1: xCUSB0136 (antibody, human IgG4, V domains shown)
VH: QVQLKESGPGLVAPSQSLSITCTVSGFSLTTYDIIWIRQSPGKGLEWLGVIWTGGDTNYNSAFMSRLSISKDNSKSQIFLKMNSLQTDDTAIYYCVRDWAYWGQGTLVTVST
VL: NIVLTQSPASLAVSLGQRATISCRASESVDNYGNSFIQWYQQKPGQPPKLLIYFASNLQSGVPARFSGSGSRTDFTLTIDPVEADDAATYYCHQNNEDPFTFGSGTKLEIK
notes: Chimeric: mouse variable regions joined to human IgG4/kappa constant regions; also called chimeric CUSB0136; xCUSBO136; not shown: human IgG4 constant region, UniProt P01861; human kappa constant region, UniProt P01834
On to B1, for which, in experiment [1], the 50% effective concentration (EC50) stood at 0.0154 µg/mL. For the same molecule, the “PD-1/PD-L1 blockade bioassay, IC50” value in experiment [2] worked out at 0.372 µg/mL. In experiment [3], the equilibrium dissociation constant (Kd) is 0.083 nM, the koff came out at 0.000193 s⁻¹ and the association rate constant (kon) was 2.3e+06 M⁻¹ s⁻¹. In experiment [4], the “IC50 (read off the curve)” value was approximately 0.4 µg/mL.

These data come from patent US20260098092A1 (CHULALONGKORN UNIVERSITY, published 2026).
